Here are results for one substance from US20220204611A1.

The experiment deals with human TREM2 on cells (human) (UniProt Q9NZC2). The experiment is described as follows: cell-based or functional assay.
human TREM2 on cells (human), sequence (Q9NZC2 19-230): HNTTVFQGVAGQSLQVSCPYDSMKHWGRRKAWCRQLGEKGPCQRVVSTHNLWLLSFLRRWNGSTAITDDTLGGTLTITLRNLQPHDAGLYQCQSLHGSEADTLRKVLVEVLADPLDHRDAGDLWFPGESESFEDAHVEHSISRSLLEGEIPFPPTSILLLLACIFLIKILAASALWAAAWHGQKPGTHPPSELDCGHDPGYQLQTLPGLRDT

Substance “rat anti-human/mouse TREM2 antibody mAb17291 (Rat IgG2b Clone #237920, R&D Systems)” registered an Emax (% maximum activation compared to RnD antibody) of 100%; a pSyk EC50, HEK293T human TREM2/DAP12 of 0.5 nM; a pSyk EC50, differentiated THP-1 cells of 0.383 nM; a pSyk Emax, HEK293T human TREM2/DAP12 of 13.8.
